Data taken from the supplement of paper PMC12042874.
± gives the uncertainty stated by the source.

Experiment: amyloid nucleation score (Sup35N fusion, yeast selection) (log enrichment); library NNK3; higher = more nucleation; inactive = no reads after selection
Outline: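 For the nucleation score, DiMSum gave the log enrichment of output over input reads, centred on the mode score of non-aggregating sequences. Psi-negative yeast expressing Sup35N fused to peptides of 20 random codons were induced with 100 μM copper sulfate for 24 hours and grown 7 days at 30°C on medium lacking adenine and uracil. Input and output plasmid inserts were Illumina-sequenced, and sequences with under 100 input reads were excluded.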

Substance | amyloid nucleation score
PSHSLSGRCHV | inactive
PSLRRTSLGSLKSSMANSWQ | inactive
PSNYWNEFYFCSSIHSCGE | 3.28 ± 0.07
PSRNYIVELS | inactive
PSSFASP | inactive
PSSKFVGGIS | inactive
PTGFLLPDAGWKIYTGSLDV | inactive
PTGMPYNLTWFFWHATMPLL | -0.255 ± 0.33
PTIKDLDTSIFGYLLGSVGD | inactive
PTKMCCLFTVIF | 2.13 ± 0.069
PTPMNKKRHYHVDVASPFSL | inactive
PTTMVPQPRPYSLRRTLAY | inactive
PVALLTD | inactive
PVAVLDG | 0.654 ± 0.18
PVDIDPLGSFVD | inactive
PVLARYL | inactive
PVLQIIRLADRLWLDIG | inactive
PVLSDNYLTDFAFCYQYYMS | inactive
PVNFFKKFMSAMEVRYHRTK | -0.046 ± 0.38
PVNYVYLTRFH | inactive
PVQPTEARNR | inactive
PVYCDCSYVREGVTITITIH | inactive
PWFNFECL | inactive
PWLLVIIVLFGLYCRM | inactive

Substance | amyloid nucleation score
PWLSVSRVVVGRSLDGNNCP | inactive
PWPNVLLCDNDRLSFRYRSF | 0.972 ± 0.1
PWSCISLFNFFGITPCWTLS | 0.491 ± 0.67
PWSHSS | inactive
PWSLWRTVKSPRKGGEQPRS | -0.317 ± 1.1
PYETGRKCNA | inactive
PYHGSSMLKIRVRGD | inactive
PYKTWTINVLLWNLSCTFLN | 1.49 ± 0.096
PYLAGWRSLIPFNTSLCSGC | inactive
PYNVSLFMLRMVSIFFVQHL | inactive
PYSIVSGPRIFYGCYHSFI | inactive
PYYNRGFCGYGFSQVMEVL | inactive
QAFDFTHHPFHDRSWNGHWS | inactive
QARRSIYSISECGGGI | 0.234 ± 0.33
QDFRLLSALRF | inactive
QEVAMRAISLSLPARWSVPC | inactive
QEWVRYYYFVLYFNYVNGSW | inactive
QFEHF | inactive
QFIINDSFYINQNNRRYSKV | inactive
QGGNAISRYKWDCIR | inactive
QGLPVSVSFVGEIYLLLF | 2.32 ± 0.053
QGNSRRSLINLHSLNKNILH | inactive
QGNWHYWCKDVRKLSLPKEL | inactive
QGSHRGMKITGISWTVLGYW | inactive

Substance | amyloid nucleation score
QGVVV | inactive
QISEFKDVLLCVCVKISLGR | 1.7 ± 0.09
QITRLPSNYVYETWSEKVFY | inactive
QKAYKYSDI | inactive
QKQFYGWVAESFARGATIPR | 0.871 ± 0.21
QLEYNYCDKLVT | inactive
QLHTDYPFGACLFSCDGLDM | inactive
QLVVRCPCYNETVG | inactive
QLYSHNRYTLGYTMLSRFVS | inactive
QMFSLTFIVMFLFFPSRGCR | inactive
QMKKLWFF | inactive
QMSFQSSYQVRLFLVPPFQW | 0.412 ± 0.23
QMSGMFTLVDWT | inactive
QMYSLWCKKCMFYDGCEGVS | inactive
QNHSNVGTFDDSA | inactive
QNRFDLPGMSQRSTHDRAPS | -0.03 ± 0.73
QPLHCK | inactive
QQCCTLVCWRRMI | inactive
QQSWFTIYDVILYR | inactive
QRDVDLMVSIGTPTSNRYET | inactive
QRISMIALDRFD | inactive
QRKVSWHAGYSA | inactive
QRLCCPRNL | inactive
QRMTLNLDRCPMSYWGSTIP | inactive

Substance | amyloid nucleation score
QRNMVSEGATRCLSTDFPCL | inactive
QRNNFLLTMVTCFDLKL | inactive
QRSEV | inactive
QSCVIVLKIGFWDVHSSMTF | 0.426 ± 0.19
QSFIRSFIVYVKDALGAHHG | inactive
QTHMTFYVCMFRGTCNGNMC | 2.1 ± 0.051
QVSFM | inactive
QWFAWARQWL | inactive
QWGSWE | inactive
QWIGISNRLLYKDWLNWRYE | inactive
QWILHNFTVGARPGPVRTKE | inactive
QWKVLLRACHRLEDALCCIS | inactive
QYANVGSCVCDRIIRCFYGW | inactive
QYCDSMTLINQPAAIRGLLW | inactive
QYDLDWFIGRSNARDGLTDW | inactive
QYFRLLTLISRPFKTHRGVG | inactive
QYLEAWRCTHFTVGALLLMG | inactive
QYLHAGGHVIVGTWYEVNMG | 1.36 ± 0.16
QYVCVRS | inactive
RACML | inactive
RAECSISSIIIYCAGRPSLI | 1.07 ± 0.098
RAFLL | inactive
RAICGMNFCNISHLT | 3.05 ± 0.067
RANLPRLFQNDHNSWLDCVA | inactive

Substance | amyloid nucleation score
RARGDTIK | inactive
RCDCLRRNGSLHSQFNVSGG | 1.02 ± 0.2
RCLEERH | inactive
RCLGLML | inactive
RCLTEA | inactive
RCMPRCALACTRLSPGRSVV | inactive
RCSLLRNIG | inactive
RCSWKTLPMYLMYCCTACHS | inactive
RCVLSNSNLCFKFFRVQTME | inactive
RCVRVIFSVMGDWVFISKNE | inactive
RCYKMLDLSILDIRYIVMLR | inactive
RCYYMAMVMYTLLPLLRAET | -0.074 ± 0.32
RDFRKSIYTCLEYYWHMVVT | inactive
RDISIFRFRYTRRSWWLSFG | inactive
RDMFIYKTCMKVCVQLPYII | inactive
RDMYLLLREHGKGTIGKPWG | inactive
RDPASGVSMCTIIIVKGYTI | 0.57 ± 0.2
RDSCFNIDFKEEVVRKVSMA | 0.827 ± 0.18
RDTGPPMFWREAVSRYR | inactive
RDWCSNLMYYDYPVTEGCDT | inactive
REFKY | inactive
RELVNSNALGNFLWETVCFS | inactive
REREF | inactive
RETLS | inactive
